Residue numbers refer to the chain shown, from its start.
B1: FL-10 (scFv)
scFv: QVTLKESGPVLVKPTETLTLTCTVSGFSFRNARMGVSWIRQPPGKALEWLAHIFSNDEKSYSTSLKSRLTISKDTSKSQVVLTLTNMDPVDTATYFCARMPEYSSGWSGAFDIWGQGTMVTVSSGGGGSGGGGSGGGGSDIQMTQSPSSLSASVGDRVTITCRASQDIRDDLGWYQQKPGNAPKRLIYGASTLQSGVPSRFSGSGSGTEFTLTISSLQPEDFATYYCLQHNSYPLTFGGGTKVDIK
B2: FL-25 (scFv)
scFv: B1 scFv with V10A, N181K, G189A, S202T, S204G, Y233F, L235F, D244E
B3: FL-28 (scFv)
scFv: B1 scFv with D167G, R169G, K178I, N181K, G189A, A190T, T192V, D244E
B4: FL-23 (scFv)
scFv: B1 scFv with V10A, R169G, D170Y, N181K, G189A, T213I, Y233F, L235W, G239Q, D244E
B5: FL-27 (scFv)
scFv: B1 scFv with A164T, D167G, D170N, G173V, N181K, G189A, Y226F, N231Y, D244E
B6: FL-26 (scFv)
scFv: B1 scFv with D167G, D170N, G173V, N181K, A190T, D244E
B7: FL-34 (scFv)
scFv: QVTLKESGPALVKPTETLTLTCTFSGFSLRNARMGVSWIRQPPGKALEWLAHIFWNDEKSYSTSLKSRLTISKDTSKSQVVLTMTNMDPVDTATYYCARIPYYGSGSYNYGMDVWGQGTTVTVSSGGGGSGGGGSGGGGSDIQMTQSPSSLSASVGDRVTITCRASQGIRNDLGWYQQKPGKAPKRLIYAASSLQSGVPSRFSGSGSGTEFTLTISSLQPEDFATYYCLQHNSYPLTFGGGTKLEIK
B8: FL-9 (scFv)
scFv: QVTLKESGPTLVKPTETLTLTCTVSGFSLSNARMGVSWIRQPPGKALEWLAHIFSNDEKSYSTSLKSRLTISKDTSKSQVVLTMTNMDPVDTATYYCARIPGYGGNFYYHYYGMDVWGQGTTVTVSSGGGGSGGGGSGGGGSDIQMTQSPSSLSASVGDRVTITCRASQGIRNDLAWYQQKPGKAPKRLIYAASTVQSGVPSRFSGSGSGTEFALTISSLQPEDFATYYCLQHNSFPWTFGQGTKVDIK
B9: FL-18 (scFv)
scFv: QVTLKESGPVLVKPTQTLTLTCTFSGFSLSNARMGVSWIRQPPGKALEWLAHIFSNDEKSFSTSLKNRLTISKDTSKSQVVLTMTNMDPVDTATYYCARMVGYGSGWYAYFDYWGQGTQVTVSSGGGGSGGGGSGGGGSDIQMTQSPSSLSASVGDRVTITCRASQSISSYLNWYQQKPGKAPKLLIYAASSLQSGVPSRFSGSGSGTDFTLTISSLQPEDFATYYCLQHNSYPLTFGGGTKVEIK
B10: FL-22 (scFv)
scFv: QVTLKESGPVLVKPTETLTLTCTVSGFSFRNARMGVSWIRQPPGKALEWLAHIFSNDEKSYSTSLKSRLTISKDTSKSQVVLTLTNMDPVDTATYFCARMPEYSSGWSGAFDIWGQGTMVTVSSGGGGSGGGGSGGGGSDIQMTQSPSSLSASVGDRVTITCRASQGISNYLAWYQQKPGKAPKRLIYAASTLQSGVPSRFSGSGSGTEFTLTISSLQPEDFATYYCLQHNTYPWTFGQGTKVEIK
B11: FL-24 (scFv)
scFv: QVTLKESGPALVKPTETLTLTCTVSGFSLRNVRMGVSWIRQPPGKALEWLAHIFSNDEKSYSTSLKSRLTISKDTSKSQVVLILTNMDPVDTATYFCARMPEYSSGWSGAFDIWGQGTMVTVSSGGGGSGGGGSGGGGSDIQMTQSPSSLSASVGDRVTITCRASQDIRDDLVWYQQKPGKAPKRLIYAASTLQSGVPSRFSGSGSGTEFTLTISSLQPEDFATYYCLQHHSYPWTFGQGTKVEIK
B12: FL-30 (scFv)
scFv: QVTLKESGPVLVKPTQTLTLTCTFSGFSLSNARMGVSWIRQPPGKALEWLALIYWNDDKRYSPSLKSRLTITKDTSKNQVVLTMTNMDPVDTATYYCARMVGYGSGWYAYFDYWGQGTLVTVSSGGGGSGGGGSGGGGSDIQMTQSPSSLSASVGDRVTITCRASQGIRNDLGWYQQKPGKAPKRLIYAASSLQSGVPSRFSGSGSGTEFTLTISSLQPEDFATYYCLQHNSYPLTFGGGTKVEIK
B13: FL-17 (scFv)
scFv: QVTLKESGPTLVKPTETLTLTCTVSGFSLSNARMGVSWIRQPPGKALEWLANIFSNDEKSYSTSLKSRLTISKGTSKSQVVLTMTNVNPVDTGTYYCARIVGYGSGWYGYFDYWGQGTLVTVSSGGGGSGGGGSGGGGSDIQMTQSPSSLSASVGDRVTITCRASQDIRNDLGWYQQKPGKAPKRLIYATSIRQSGVPSRFTGSGSGTEFTLTISGLQPEDFATYFCLQHNSFPLTFGGGTKVEIK
B14: FL-11 (scFv)
scFv: QVTLKESGPVLVKPTETLTLTCTLSGFSLNNAKMGVSWIRQPPGKALEWLAQIFSNGEKSYSTSLKSRLTISKDTSKGQVVLTMTNMDPVDTATYYCSRIVGYGSGWYGYFDYWGQGTLVTVSSGGGGSGGGGSGGGGSDIQMTQSPSSLSASVGDRVTITCRASQGIRNDLGWYQQKPGKAPKRLIYGASTLQSGVPSRFSGSGSGTEFTLTISSLQPEDFATYYCLQHNSYPLTFGGGTKVEIK
B15: FL-14 (scFv)
scFv: B14 scFv with V10A, K33R, G35A, A46T, Q52H, G57D, S98A, G167D, G189A
B16: FL-12 (scFv)
scFv: QVTLKESGPALVKPTETLTLTCTVSGFSLSNARMGVSWIRQPPGKALEWLANIFSNDEKSYSTSLKSRLTISKGTSKSQVVLTMTNMDPEDTATYYCARIVGYGSGWYGYFDYWGQGTLVTVSSGGGGSGGGGSGGGGSDIQMTQSPSSLSASVGDRVTITCRASQGIRNDLGWYQQKPGKAPQRLIYAASSLQSGVPSRFSGSGSGTEFTLTISSLQPEDFATYYCLQHNSYPLTFGGGTKVEIK
B17: FL-29 (scFv)
scFv: B16 scFv with E16Q, V24F, N52H, S62R, G74D, E90V, G109A, Q184K
B18: FL-31 (scFv)
scFv: B16 scFv with E16Q, V24F, N52H, G74D, N86D, S105T, Y110F, T118I, A164T, Q184K
B19: FL-21 (scFv)
scFv: QVTLKESGPALVKPTETLTLTCTFSGFSLSNARMGVSWIRQPPGKALEWLAHIFSNDEKSYSTSLKSRLTISKDTSKSQVVLTMTNMDPVDTATYYCARIPGYGGNFYYHYYGMDVWGQGTTVTVSSGGGGSGGGGSGGGGSDIQMTQSPSSLSASVGDRVTITCRTSRGIRNDLGWYQQIPGRAPKRLIYAASTLQSGVPSRFSGSGSGTEFTLTISSLQPEDFATYYCLQHNNFPWTFGQGTKVEIK
B20: FL-15 (scFv)
scFv: QVTLKESGPALVKPTETLTLTCTLSGFSLNNARMAVSWIRQPPGKTLEWLAHIFSNDEKSYSTSLKSRLTISKDTSKGQVVLTMTNMDPVDTATYYCARIVGYGSGWYGYFDYWGQGTLVTVSSGGGGSGGGGSGGGGSDIQMTQSPSSLSASVGDRVTITCRASQDIGNDLGWYQQKPGKAPKRLIYAASSLQSGVPSRFSGSGSGTEFTLTISSLQPEDFATYYCLQHNSYPLTFGGGTKVEIK
B21: FL-20 (scFv)
scFv: B20 scFv with G78S, V90E, S105T, Y110F, T118I, D167G, G169R, G173A
B22: FL-16 (scFv)
scFv: B20 scFv with A10V, L24V, N30R, G78S, L150V, G169R, N170Y, G173A, S232F
B23: FL-33 (scFv)
scFv: B20 scFv with A10V, L24V, N30R, A35G, D167G, N170D, K178I, A190T, S192V, V243L
B24: FL-32 (scFv)
scFv: QVTLKESGPTLVKPTETLTLTCTVSGFSFRNARMGVSWIRQPPGKALEWLAHIFSNDEKSYSTSLKSRLTISKDTSKGQVVLTMTNMDPVDTATYYCARIVGYGSGWYGYFDYWGQGTLVTVSSGGGGSGGGGSGGGGSDIQMTQSPSSLSASVGDRVTITCRASQGIRNDLVWYQQKPGKAPKRLIYAASTLQSGVPSRFSGSGSGTEFILTISSLQPEDFATYFCLQHYSYPLTFGGGTKLEIK
B25: FL-13 (scFv)
scFv: QVTLKESGPTLVKPTETLTLTCTLSGFSLNNARMGVSWIRQPPGKALEWLAHIFSNDEKSYSTSLKNRLTISKDSSKTQVVLTMTNVDPVDTATYYCARIVGYGSGWYGFFDYWGQGTLVTVSSGGGGSGGGGSGGGGSDIQMTQSPSSLSASVGDRVTITCRASQGIRNDLGWYQQKPGKAPKRLIYAASTLQSGVPSRFSGSGSGTEFTLTISSLQPEDFATYYCLQHNSYPLTFGGGTKVEIK
B26: FL-19 (scFv)
scFv: QVTLKESGPTLVKPTETLTLTCTVSGFSLSYARMGVSWIRQPPGKALEWLAQIFSNDEKSYSTSLKSRLTISKDTSKSQVVLTMTDMDPEDTATYYCARIVGYGTGWYGYFDYWGQGTQVTVSSGGGGSGGGGSGGGGSDIQMTQSPSSLSASVGDRVTITCRASQDIGDDLGWYQQKPGKAPKRLIYAASTLQSGVPFRFSGSGSGTDFTLTISSLQPEDFATYYCLQHNSYPLTFGGGTKVEIK

What follows are binders tested against human FLT3 on transfected CHO cells (human) (UniProt P36888) (assay: FACS, scFv on CHO-human FLT3 cells pre-incubated with FLT3 ligand (competitor)).

median [+ligand]/median [w/o ligand]*100 [%]	Binder
> 75	B1
> 75	B2
> 75	B3
> 75	B4
> 75	B5
> 75	B6
> 75	B7
> 75	B8
> 75	B9
> 75	B10
> 75	B11
> 75	B12
> 75	B13
> 75	B14
> 75	B15
> 75	B16
> 75	B17
> 75	B18
> 75	B19
> 75	B20
> 75	B21
> 75	B22
> 75	B23
> 75	B24
> 75	B25
> 75	B26

Source: US20230272113A1
